Here are results for seven molecules from patent publication US20230105029A1 (CHIA TAI TIANQING PHARMACEUTICAL GROUP, published 2023).

Like-named read-outs stand apart in the source and are kept apart here.

For assay [1], the target named is T1, recombinant human IL4Rα-his protein (in house made) (human, UniProt P24394 26-232, limits assumed).
T1 construct: also called Human IL4Ra-his
As to the kind of experiment: competitive ELISA: antibody mixed with biotin human IL4Rα-his, competitor plate-coated Benchmark. The protocol:
The ability of the anti-IL4Rα antibodies of the disclosure to block benchmark-human IL4Rα binding was measured in a competitive ELISA assay. Briefly, the benchmark was coated on 96-well micro plates at 2 μg/mL in PBS, 100 μl per well, and incubated overnight at 4° C. The next day, plates were washed with wash buffer (PBS+0.05% w/v Tween-20, PBST), and blocked with 5% w/v non-fatty milk in PBST for 2 hours at 37° C. tiring plate blocking, the anti-IL4Rα antibodies of the disclosure or controls were diluted with biotin labeled human IL4Rα-his proteins (prepared in-house with SEQ ID NO: 57, 0.55 nM in 2.5% w/v non-fatty milk in PBST), starting at 100 nM with a 4-fold serial dilution, and incubated at 25° C. for 40 minutes. After plate washing, the antibody/IL4Rα-his mixtures were added to benchmark coated plates, 100 μl per well. After incubation at 37° C. for 40 minutes, plates were washed using wash buffer. Then the plates were added and incubated with 100 μl/well streptavidin conjugated HRP for 40 minutes at 37° C. to detect biotin-labeled human IL4Rα-his bound to plates. Plates were washed again using wash buffer. Finally, TMB was added and the reaction was stopped using 1M H₂SO₄, and the absorbance was read at 450 nm. Data was analyzed using Graphpad Prism software and IC₅₀ values were reported.
(ELISA stands for enzyme-linked immunosorbent assay.)

In assay [2] the target is T1, recombinant human IL4Rα-his protein (in …). The experiment in a line: SPR (Biacore), antibody captured, IL4Rα-his flowed. The protocol:
Briefly, goat anti-mouse IgG (GE healthcare, Cat #BR100838, Mouse Antibody Capture Kit) was covalently linked to a CMS chip (carboxy methyl dextran coated chip) via primary amines, using a standard amine coupling kit provided by Biacore (GE healthcare, Pittsburgh, Pa., USA). Un-reacted moieties on the biosensor surface were blocked with ethanolamine. Then, purified anti-IL4Rα antibodies of the disclosure at the concentration of 66.67 nM and an anti-IL4Rα benchmark (Dupilumab®, also referred to as BM) at 10 μg/ml, were flowed onto the chip at a flow rate of 10 μL/min. Then, serially diluted recombinant human IL4Rα-his (in house made, amino acid sequence set forth in SEQ ID NO: 57), cynomolgus monkey IL4Rα-his protein (Sino biological inc., Cat #90897—C08H), or marmoset monkey IL4Rα-his protein (Custom made by Sino biological inc., also referred to as cal-IL4Rα-his, amino acid sequence set forth in SEQ ID NO: 58) in HBS EP buffer (provided by Biacore) was flowed onto the chip at a flow rate of 30 μL/min. The antigen-antibody association kinetics was followed for 2 minutes and the dissociation kinetics was followed for 10 minutes. The association and dissociation curves were fit to a 1:1 Langmuir binding model using BIA evaluation software.
On the technique in general: In SPR one partner is held on a chip, and binding of the other changes the refractive index at the surface.

Assay [3] shares this target. As to the kind of experiment: competitive ELISA, blocks biotin-IL4 binding to coated IL4Rα-his. On the procedure:
The activity of the anti-IL4Rα antibodies of the disclosure to block IL4-IL4Rα interaction was measured in a competitive ELISA assay. Briefly, 100 μl human IL4Rα-his proteins (prepared in-house with SEQ ID NO: 57) were coated on 96-well micro plates at 2 μg/mL in PBS overnight at 4° C. The next day, plates were washed with wash buffer (PBS+0.05% w/v Tween-20, PBST), and blocked with 5% w/v non-fatty milk in PBST for 2 hours at 37° C. Plates were then washed again using wash buffer.
Serially diluted anti-IL4Rα antibodies or the controls (starting at 80 nM with a 4-fold serial dilution) in 2.5% w/v non-fatty milk in PBST, 100 μl per well, were added to the IL4Rα bound plates, and incubated with the human IL4Rα-his proteins at 37° C. for 40 minutes. Plates were washed 4 times using wash buffer, and then added and incubated for 40 minutes at 37° C. with 100 μl/well of 0.56 nM biotin-labeled human IL4 protein (Sino biological inc., Cat #11846-HNAE). Plates were washed again using wash buffer. Thereafter, the plates were added with 100 μl/well of streptavidin conjugated HRP (1:10000 dilution in PBST buffer, Jackson Immunoresearch, Cat #016-030-084) and incubated for 40 minutes at 37° C. Plates were washed again using wash buffer. Finally, TMB was added and the reaction was stopped using 1M H₂SO₄, and the absorbance was read at 450 nm. Data was analyzed using Graphpad Prism software and IC₅₀ values were reported.

The target in assay [4] is human IL4Rα expressed on HEK293T-IL4Rα-STAT6-STAT6LUC-LB2 cells (human, UniProt P24394 26-825). The experiment in a line: cell-based or functional assay.
The target in assay [5] is T2, human IL4Rα expressed on 293F-IL4Rα cells (human, UniProt P24394 26-825).
T2 construct: whole, on cells; also called cell surface human IL4Rα
The experiment in a line: flow cytometry, 293F-IL4Rα cells. The protocol:
Then, 2×10⁵ cells per well in 96 well-plates were incubated in 100 μL of the anti-IL4Rα antibodies or controls of various concentrations (starting at 80 nM with a 4-fold serial dilution) in FACS buffer for 40 minutes on ice. […] Following an incubation of 40 minutes at 4° C. in dark, cells were washed three times and resuspended in FACS buffer. Fluorescence was measured using a Becton Dickinson FACS Canto II-HTS equipment. Data was analyzed using Graphpad Prism software and EC₅₀ values were reported.
(In general: In flow cytometry, cells or beads pass a laser one at a time.)

In assay [6] the target is T1, recombinant human IL4Rα-his protein (in …). As to the kind of experiment: SPR (Biacore), antibody captured, IL4Rα-his flowed. This is another data set of the same source.
The target of assay [7] is T3, marmoset monkey IL4Rα-his protein (marmoset monkey).
T3 construct: Custom made by Sino biological; no cleavage site stated; also called cal-IL4Rα-his; Cal-IL4Rα
T3 chain: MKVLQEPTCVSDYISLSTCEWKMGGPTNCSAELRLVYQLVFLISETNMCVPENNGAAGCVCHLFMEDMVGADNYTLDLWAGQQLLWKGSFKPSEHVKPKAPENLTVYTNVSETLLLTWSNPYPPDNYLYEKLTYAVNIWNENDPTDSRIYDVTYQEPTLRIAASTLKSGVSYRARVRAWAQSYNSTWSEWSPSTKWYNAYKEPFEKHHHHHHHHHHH
As to the kind of experiment: indirect ELISA, coated cal-IL4Rα-his.

For assay [8], the target named is T4, cynomolgus monkey IL4Rα-his protein (cynomolgus monkey, UniProt A0A2K5V580 33-239).
T4 construct: Bought protein; also called Cynomolgus IL4Rα; Cyno-IL4Rα-his; not shown: his tag
The experiment in a line: indirect ELISA, coated cyno IL4Rα-his.

As a reminder, the IC50 is the midpoint of a concentration-inhibition curve. As usually defined, the Kd is the equilibrium constant for the complex coming apart. In general, koff refers to a measure of how fast the partners let go of each other. Broadly, the kon is the rate constant with which the complex forms. Usually EC50 stands for the concentration that produces a half-maximal response.

B1: mouse antibody B1D2F7D3B5 (antibody, V domains shown)
VH: EVKLVESGGGLVKPGGSLKLSCAASGFTFSSYAMSWVRQTPEKRLEWVASISSGDSTYYLDSVKGRFTISRDNAMNILYLQMSSLRSEDTAVYYCERSGGSAPYWGQGTLVSVSA
VL: QIVLTQSPAIMSASPGEMVTISCSASSSVSYMYWYQQKPGSSPKPWIYRTSNLASGVPARFSGSGSGTSYSLTISSMEAEDAATYYCQQYHSFPLTFGAGTKLELK
notes: Mouse hybridoma mAb
For B1, the IC50 in assay [1] came out at 0.024 nM. For the same molecule, in assay [2], the Kd came to 0.623 nM, the koff was 0.000266 s⁻¹ and the on-rate constant (kon) was 427000 M⁻¹ s⁻¹. In assay [3], the IC50 was 1.8 nM. Further, in assay [4], the “Inhibition on IL4 induced STAT6 phosphorylation (IC50, nM)” value came to 0.17 nM and the “Inhibition on IL13 induced STAT6 phosphorylation (IC50, nM)” value was 0.48 nM.

B2: mouse antibody B9D1D11F8D8 (antibody, V domains shown)
VH: EVKLVESGGGLVKPGGSLKLSCAASGFTFSSYAMSWVRQTPEKRLEWVASISSGDSTYYLDSVKGRFTISRDNARNILYLQVSSLRSEDTAMYYCERSGGSAPYWGQGTLVTVSA
VL: QIVLTQSPAIMSASPGDMVTISCSASSSVNYMYWYQQKPGSSPKPWIYRTSNLASGVPARFSGSGSGTSYSLTISSMEAEDAATYYCQQYHSFPLTFGAGTKLELK
notes: Mouse hybridoma mAb
Consider B2, for which the IC50 in assay [1] was determined as 0.0209 nM. Moreover, in assay [2], the Kd is 0.655 nM, the koff amounted to 0.000274 s⁻¹ and the on-rate constant (kon) came to 418000 M⁻¹ s⁻¹. In addition, the IC50 in assay [3] was determined as 2.88 nM. Moreover, in assay [4], the “Inhibition on IL4 induced STAT6 phosphorylation (IC50, nM)” value amounted to 0.23 nM and the “Inhibition on IL13 induced STAT6 phosphorylation (IC50, nM)” value came out at 0.36 nM.

B3: mouse antibody B8G11F2B7G5E8 (antibody, V domains shown)
VH: EVQLQQSGADLVRPGASVKLSCTASGFNIKDTYMHWVKQRPEQGLEWVGRIDPTNGYTIYASKFQGKATITADTSSNTAYMQLSSLTSGDTAVYHCVSRRPWFAYWGQGTLVTVSA
VL: DILMTQTPLSLPVSLGAQASISCRSSQSIVHSNGNTYLEWYLQKPGQSPKLLIYKVTNRFSGVPDRFSGSGSGTDFTLKISRVEAEDLGIYYCFQGSHVPYTFGGGTKLEIK
notes: Mouse hybridoma mAb; also called Mouse B8G11F2B7G5E8; mAb B8G11F2B7G5E8
B3: the IC50 was determined as 0.0171 nM in assay [1] and 0.81 nM in assay [3]. Moreover, the EC50 in assay [5] was 0.41 nM; in assay [7] it was 0.87 nM; in assay [8], 0.5 nM. In addition, the Kd in assay [2] amounted to 1.49 nM; in assay [6], 2.98 nM. Besides, the koff in assay [2] worked out at 0.000293 s⁻¹. Moreover, in assay [2], the kon came out at 197000 M⁻¹ s⁻¹. The “Inhibition on IL4 induced STAT6 phosphorylation (IC50, nM)” value in assay [4] came out at 0.23 nM. Besides, the “Inhibition on IL13 induced STAT6 phosphorylation (IC50, nM)” value in assay [4] was determined as 0.47 nM.

B4: chimeric antibody B8G11F2B7G5E8 (antibody, human IgG4 S228P, kappa, V domains shown)
VH: EVQLQQSGADLVRPGASVKLSCTASGFNIKDTYMHWVKQRPEQGLEWVGRIDPTNGYTIYASKFQGKATITADTSSNTAYMQLSSLTSGDTAVYHCVSRRPWFAYWGQGTLVTVSA
VL: DILMTQTPLSLPVSLGAQASISCRSSQSIVHSNGNTYLEWYLQKPGQSPKLLIYKVTNRFSGVPDRFSGSGSGTDFTLKISRVEAEDLGIYYCFQGSHVPYTFGGGTKLEIKR
notes: Mouse variable domains on human IgG4/kappa; also called Chimeric B8G11F2B7G5E8; chB8G11F2B7G5E8
Take B4: the EC50 in assay [5] came out at 0.78 nM; in assay [7], 1.01 nM; in assay [8] it was 1.06 nM. In addition, the dissociation constant (Kd) in assay [6] is 2.99 nM.

B5: mouse antibody C2C1A1A1 (antibody, V domains shown)
VH: EVQLVESGGGLVQPGGSLKLSCAASGFTFSTYGMSWVRQTPDKRLELVATINSNGGSTSYPDSVKGRFTISRDNAKNTLYLQMSSLKSEDTAMFYCARFFRFRNAMDYWGQGTSVTVSS
VL: DIQMTQSPASLSASVGETVTITCRTSENIYSYLAWYQQKQGKSPQFLVYNAKTLAEGVPSRFSGSGSGTQFSLNINSLQSEDFGSYYCQHYYGPPTWTFGGGTKLEIK
notes: Mouse hybridoma mAb; also called Mouse C2C1A1A1
Consider B5, for which the IC50 in assay [1] stood at 0.0383 nM. The EC50 in assay [5] was found to be 0.31 nM. Besides, in assay [2], the Kd was found to be 0.0401 nM, the koff turned out to be 1.16e-05 s⁻¹ and the kon came to 290000 M⁻¹ s⁻¹. Also, the Kd in assay [6] was 0.119 nM. In assay [3], the IC50 came to 0.81 nM. For the same molecule, in assay [4], the “Inhibition on IL4 induced STAT6 phosphorylation (IC50, nM)” value is 0.16 nM and the “Inhibition on IL13 induced STAT6 phosphorylation (IC50, nM)” value was 0.23 nM.

B6: chimeric antibody C2C1A1A1 (antibody, human IgG4 S228P, kappa, V domains shown)
VH: EVQLVESGGGLVQPGGSLKLSCAASGFTFSTYGMSWVRQTPDKRLELVATINSNGGSTSYPDSVKGRFTISRDNAKNTLYLQMSSLKSEDTAMFYCARFFRFRNAMDYWGQGTSVTVSS
VL: DIQMTQSPASLSASVGETVTITCRTSENIYSYLAWYQQKQGKSPQFLVYNAKTLAEGVPSRFSGSGSGTQFSLNINSLQSEDFGSYYCQHYYGPPTWTFGGGTKLEIKR
notes: Mouse variable domains on human IgG4/kappa; also called Chimeric C2C1A1A1; chC2C1A1A1
As for B6, the EC50 in assay [5] was found to be 0.63 nM; in assay [7] it was 0.62 nM; in assay [8] it was 0.6 nM. For the same molecule, the Kd in assay [6] amounted to 0.522 nM.

B7: mouse antibody C2B2F7B7 (antibody, V domains shown)
VH: EVQLVESGGGLVQPGGSLKLSCAASGFTFSTYGMSWVRQTPDKRLELVATINSNGGSTNYPDSVKGRFTISRDNAKNTLYLQMSSLKSEDTAMYYCARFFRIRNAMDYWGQGTSVTVSS
VL: DIQMTQSPASLSASVGETVTITCRASENIYSYLAWYQQKQGKSPQFLVYNAKTLAEGVPSRFSGSGSGTQFSLKINSLQPEDFGSYYCQHYYGTPTWTFGGGTKLEIK
notes: Mouse hybridoma mAb
Regarding B7, in assay [1], the half-maximal inhibitory concentration (IC50) amounted to 0.716 nM. In addition, in assay [2], the Kd stood at 0.554 nM, the koff stood at 0.000139 s⁻¹ and the kon was determined as 251000 M⁻¹ s⁻¹. Moreover, the IC50 in assay [3] turned out to be 0.73 nM. In assay [4], the “Inhibition on IL4 induced STAT6 phosphorylation (IC50, nM)” value came to 0.17 nM and the “Inhibition on IL13 induced STAT6 phosphorylation (IC50, nM)” value was determined as 0.31 nM.
